Biological target: T1, CD3 epsilon homodimer protein (UniProt P07766 23-126)
T1 construct: also called CD3 (CD3 epsilon)
Experiment: SPR Biacore T200, antibody over immobilised CD3e homodimer;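 further: CD3 epsilon homodimer amine-coupled on a CM4 chip, run at 25 °C in HBS-EP+, Z = bound amount of each single-residue H chain variant over that of the parent antibody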
Experimental: An appropriate amount of CD3 epsilon homodimer protein was immobilized onto Sensor chip CM4 (GE Healthcare Japan Corp.) by the amine coupling method. Then, the antibody having an appropriate concentration was injected thereto as an analyte and allowed to interact with the CD3 epsilon homodimer protein on the sensor chip. Then, the sensor chip was regenerated by the injection of 10 mmol/L glycine-HCl (pH 1.5). The assay was conducted at 25 degrees C., and HBS-EP+(GE Healthcare Japan Corp.) was used as a running buffer. […] Each parameter was calculated using Biacore T200 Evaluation Software (GE Healthcare Japan Corp.).
Specifically, when the amount of the antibody comprising CE115HA000 bound was defined as X and the amount of the H chain one-amino acid altered form bound was defined as Y, a value of Z (ratio of amounts bound)=Y/X was used.

T1 sequence (P07766 23-126): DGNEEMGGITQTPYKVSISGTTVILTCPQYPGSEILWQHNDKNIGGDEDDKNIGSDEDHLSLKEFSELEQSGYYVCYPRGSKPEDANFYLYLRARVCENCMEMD

B1: CE115HA000 S62D one-arm antibody (antibody, human IgG1, kappa, L234A L235A, N297A, name in Kabat numbering)
heavy: QVQLVESGGGVVQPGRSLRLSCAASGFTFSNAWMHWVRQAPGKGLEWVAQIKAKSNNYATYYAEDVKGRFTISRDDSKNSLYLQMNSLKTEDTAVYYCRYVHYGAYYGVDAWGQGTTVTVSSASTKGPSVFPLAPSSKSTSGGTAALGCLVKDYFPEPVTVSWNSGALTSGVHTFPAVLQSSGLYSLSSVVTVPSSSLGTQTYICNVNHKPSNTKVDKKVEPKSCDKTHTCPPCPAPEAAGGPSVFLFPPKPKDTLMISRTPEVTCVVVDVSHEDPEVKFNWYVDGVEVHNAKTKPREEQYASTYRVVSVLTVLHQDWLNGKEYKCKVSNKALPAPIEKTISKAKGQPREPQVYTLPPSRCELTKNQVSLSCAVKGFYPSDIAVEWESNGQPENNYKTTPPVLDSDGSFFLVSKLTVDKSRWQQGNVFSCSVMHEALHNHYTQKSLSLSPDYKDDDDK
chain: EPKSSDKTHTCPPCPAPELLGGPSVFLFPPKPKDTLMISRTPEVTCVVVDVSHEDPEVKFNWYVDGVEVHNAKTKPREEQYNSTYRVVSVLTVLHQDWLNGKEYKCKVSNKALPAPIEKTISKAKGQPREPQVCTLPPSRDELTKNQVSLWCLVKGFYPSDIAVEWESNGQPENNYKTTPPVLDSDGSFFLYSKLTVDKSRWQQGNVFSCSVMHEALHNRYTQKSLSLSP
light: DIVMTQSPLSLPVTPGEPASISCRSSQSLVHSNRNTYLHWYQQKPGQAPRLLIYKVSNRFSGVPDRFSGSGSGTDFTLKISRVEAEDVGVYYCGQGTQVPYTFGQGTKLEIKRTVAAPSVFIFPPSDEQLKSGTASVVCLLNNFYPREAKVQWKVDNALQSGNSQESVTEQDSKDSTYSLSSTLTLSKADYEKHKVYACEVTHQGLSSPVTKSFNRGEC
notes: one-arm antibody
ratio of amounts bound (Z=Y/X vs CE115HA000): 0.92

B2: CE115HA000 S62E one-arm antibody (antibody, human IgG1, kappa, L234A L235A, N297A, name in Kabat numbering)
heavy: QVQLVESGGGVVQPGRSLRLSCAASGFTFSNAWMHWVRQAPGKGLEWVAQIKAKSNNYATYYAEEVKGRFTISRDDSKNSLYLQMNSLKTEDTAVYYCRYVHYGAYYGVDAWGQGTTVTVSSASTKGPSVFPLAPSSKSTSGGTAALGCLVKDYFPEPVTVSWNSGALTSGVHTFPAVLQSSGLYSLSSVVTVPSSSLGTQTYICNVNHKPSNTKVDKKVEPKSCDKTHTCPPCPAPEAAGGPSVFLFPPKPKDTLMISRTPEVTCVVVDVSHEDPEVKFNWYVDGVEVHNAKTKPREEQYASTYRVVSVLTVLHQDWLNGKEYKCKVSNKALPAPIEKTISKAKGQPREPQVYTLPPSRCELTKNQVSLSCAVKGFYPSDIAVEWESNGQPENNYKTTPPVLDSDGSFFLVSKLTVDKSRWQQGNVFSCSVMHEALHNHYTQKSLSLSPDYKDDDDK
chain: EPKSSDKTHTCPPCPAPELLGGPSVFLFPPKPKDTLMISRTPEVTCVVVDVSHEDPEVKFNWYVDGVEVHNAKTKPREEQYNSTYRVVSVLTVLHQDWLNGKEYKCKVSNKALPAPIEKTISKAKGQPREPQVCTLPPSRDELTKNQVSLWCLVKGFYPSDIAVEWESNGQPENNYKTTPPVLDSDGSFFLYSKLTVDKSRWQQGNVFSCSVMHEALHNRYTQKSLSLSP
light: DIVMTQSPLSLPVTPGEPASISCRSSQSLVHSNRNTYLHWYQQKPGQAPRLLIYKVSNRFSGVPDRFSGSGSGTDFTLKISRVEAEDVGVYYCGQGTQVPYTFGQGTKLEIKRTVAAPSVFIFPPSDEQLKSGTASVVCLLNNFYPREAKVQWKVDNALQSGNSQESVTEQDSKDSTYSLSSTLTLSKADYEKHKVYACEVTHQGLSSPVTKSFNRGEC
notes: one-arm antibody
ratio of amounts bound (Z=Y/X vs CE115HA000): 0.92
